Paper PMC7515725

Key:
[1] = system: Histone octamer with H4K77succ (Xenopus laevis); experiment: FRET salt titration; settings: LexA FRET: 10 nM nucleosome, 0-100 uM LexA, 0.5x TE, 75 mM NaCl, 10 min, nucleosomes reconstituted by KCl step dialysis (2 M to 10 mM), 10 mM Tris-HCl pH 7.8 …
[2] = system: Histone octamer, H2B T112C or end-label DNA FRET, unmodified H4 (Xenopus laevis); experiment: FRET salt titration; settings: C1/2 is the NaCl concentration for 50% FRET loss, LexA FRET: 10 nM nucleosome, 0-100 uM LexA, 0.5x TE, 75 mM NaCl, 10 min, nucleosomes reconstituted by KCl step dialysis (2 M to 10 mM), 10 mM Tris-HCl pH 7.8 …
[3] = system: LexA; experiment: FRET LexA titration; settings: 75 mM NaCl, absolute S1/2 only in figure, LexA FRET: 10 nM nucleosome, 0-100 uM LexA, 0.5x TE, 10 min, nucleosomes reconstituted by KCl step dialysis (2 M to 10 mM), 10 mM Tris-HCl pH 7.8 …, scale: % decrease of S1/2 vs unmodified nucleosome

Widom 601, end-labelled
K half ([1]; C1/2 is the NaCl concentration for 50% FRET loss, 14.8% lower than unmodified): 0.529 M NaCl | K half ([2]; not a protein Kd): 0.621 M NaCl

601 DNA with LexA site, in H4K77succ nucleosome
binding signal [3]: 45.5

MMTV-B
binding signal (% decrease of C1/2 vs unmodified) ([1]; NaCl titration): 9 | K half [2]: 0.475 M NaCl
